Residue numbers refer to the chain shown, from its start. Names may count otherwise. Each block holds one binder with its values, some of them ahead of it.
Target: human IL-23R (human) (UniProt Q5VWK5)
Experiment: BIAcore, antibody immobilized on CM5 chip

human IL-23R (human), sequence (Q5VWK5 24-353 L310P limits assumed): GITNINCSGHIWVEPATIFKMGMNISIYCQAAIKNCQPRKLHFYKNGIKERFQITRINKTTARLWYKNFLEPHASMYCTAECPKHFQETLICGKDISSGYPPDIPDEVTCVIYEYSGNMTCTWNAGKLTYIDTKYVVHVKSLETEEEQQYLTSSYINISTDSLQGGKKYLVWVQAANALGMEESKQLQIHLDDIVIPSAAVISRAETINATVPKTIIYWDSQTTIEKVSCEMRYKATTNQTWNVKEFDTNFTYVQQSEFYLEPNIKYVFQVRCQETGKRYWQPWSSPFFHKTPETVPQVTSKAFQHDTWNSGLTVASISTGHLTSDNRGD

- Kd: 4.3 nM
- fold reduction of binding affinity against mouse 20D7: 50 fold
B1: humanized 20D7 antibody with hu20D7-a heavy chain variable domain (antibody, part only; not given: unnamed light chain, V domains shown, part only)
VH: QVQLVQSGAEVKKPGASVKVSCKASGYTFTNYAMNWVRQAPGQGLEWMGWINTYTGEPTYNEKFKGRVTMTTDTSTSTAYMELRSLRSDDTAVYYCARGGGYDEDYFDYWGQGTLVTVSS

- Kd: 0.36 nM
B2: humanized 20D7 antibody with hu20D7-b heavy chain variable domain (T72L) (antibody, part only; not given: unnamed light chain, V domains shown, part only)
VH: B1 VH with N61S, E62D, K63D, T72L

- Kd: 0.23 nM
- fold improvement of binding affinity against the simple humanization (hu20D7-a): 20 fold
B3: humanized 20D7 antibody with hu20D7-c heavy chain variable domain (T72L, M70F) (antibody, part only; not given: unnamed light chain, V domains shown, part only)
VH: B1 VH with N61S, E62D, K63D, M70F, T72L
